Reference: publication PMC6107277, “Distinct substrate specificity and physicochemical characterization of native human hepatic thymidine phosphorylase” (PLoS ONE, 2018)

How the values were obtained:
[1] = biological target: the molecule itself; test: AUC; sedimentation equilibrium, Beckman XL-A, 15,000 rpm, 20°C, Buffer A, 0.4, 0.2 and 0.1 mg protein/mL, absorbance at 278 nm; global fit to a monomer-dimer-tetramer association model; constants for monomer to dimer (1,2) and dimer to tetramer (2,4)
[2] = biological target: the molecule itself; test: SEC + native gel or EMSA; hydroxyapatite homogeneously purified TP (first peak) on Sephadex G-100 in Buffer A (20 mM potassium phosphate pH 8.0, 1 mM DTT, 1 mM EDTA, 1 mM PMSF), 4°C, calibrated with standard proteins; native-PAGE on 10% gel; native about 100 kDa against about 52 kDa on SDS-PAGE

B1: native human hepatic thymidine phosphorylase (enzyme, human (endogenous in liver), UniProt P19971 11-482, looked up)
chain: APPAPGDFSGEGSQGLPDPSPEPKQLPELIRMKRDGGRLSEADIRGFVAAVVNGSAQGAQIGAMLMAIRLRGMDLEETSVLTQALAQSGQQLEWPEAWRQQLVDKHSTGGVGDKVSLVLAPALAACGCKVPMISGRGLGHTGGTLDKLESIPGFNVIQSPEQMQVLLDQAGCCIVGQSEQLVPADGILYAARDVTATVDSLPLITASILSKKLVEGLSALVVDVKFGGAAVFPNQEQARELAKTLVGVGASLGLRVAAALTAMDKPLGRCVGHALEVEEALLCMDGAGPPDLRDLVTTLGGALLWLSGHAGTQAQGAARVAAALDDGSALGRFERMLAAQGVDPGLARALCSGSPAERRQLLPRAREQEELLAPADGTVELVRALPLALVLHELGAGRSRAGEPLRLGVGAELLVDVGQRLRRGTPWLRVHRDGPALSGPQSRALQEALVLSDRAPFAAPSPFAELVLPPQQ
modifications: N-terminal blocked by an unknown moiety (neither N-formyl nor pyrrolidone carboxylic acid)
notes: thymidine phosphorylase / PD-ECGF, human liver, native subunit of about 50 kDa (49,882 by electrospray MS); DPSPEPKQ = 28-35; Native tissue protein; also called TP; human liver TP; source: purified from human liver (autopsy material) by DEAE-cellulose, Phenyl Sepharose CL-4B and hydroxyapatite chromatography; also used as DEAE-cellulose partially purified fraction and as 50,000 x g liver cytosol
For B1, the “Ka (1,2), monomer to dimer” value [1] was 581000 M⁻¹, the “Ka (2,4), dimer to tetramer” value [1] was 10100 M⁻¹ and the “stoichiometry N” value [2] was 2.
